Source: US20140315215A1 (SECRETARY OF STATE FOR HEALTH, published 2014)

Biological target: T1, hen egg lysozyme (hen, UniProt P00698 19-147)
T1 construct: Antigen immobilised on the microtitre plate in all ELISAs; also called HEL
Assay: ELISA on immobilised HEL, tAK activity read-out; fusion extracted with glutathione and heat treated, compared with the BSA control
Procedure: FIG. 1 illustrates functional recovery of correctly folded single-domain antibody (VNAR) in the presence of the Sac tAK domain and glutathione. The fusion proteins were assessed for their ability to bind to hen egg lysozyme immobilized onto a microtitre plate in an ELISA format, using the tAK activity as the assay read-out. In each case background binding was measured using BSA as a non-relevant antigen control. In the case of Tma tAK fusions, no significant increase in binding was observed above the background binding to BSA with either glutathione extraction, heat treatment or a combination of the two.

T1 sequence (P00698 19-147): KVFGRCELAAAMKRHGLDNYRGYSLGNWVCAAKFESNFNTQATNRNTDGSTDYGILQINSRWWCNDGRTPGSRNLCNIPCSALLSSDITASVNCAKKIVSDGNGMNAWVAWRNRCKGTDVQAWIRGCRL

B1: SacAK-F3-VNAR fusion protein (Sulfolobus acidocaldarius adenylate kinase, [GGGGS]3 flexible linker F3, hen egg lysozyme specific shark VNAR) (VNAR)
chain: MLATALKLGYAKDRDEMRKLSVEKQKKLQIDAAKGIAEEARAGGEGYLFIDTHAVIRTPSGYLPGLPSYVITEINPSVIFLLEADPKIILSRQKRDTTRNRNDYSDESVILETINFARYAATASAVLAGSTVKVIVNVEGDPSIAANEIIRSMKQSTGGGGSGGGGSGGGGSGSARVDQTPRSVTKETGESLTINCVLRDASYALGSTCWYRKKSGSTNEESISKGGRYVETVNSGSKSFSLRINDLTVEDGGTYRCGLGVAGGYCDYALCSSRYAECGDGTAVTVN
notes: also called Sac tAK fusions; the fusion
fold increase in binding: ~10 fold
